Test results reported in patent US20200046811.

Target: T1, Recombinant Human FGF23 (Fibroblast Growth Factor 23), Q9GZV9
T1 chain: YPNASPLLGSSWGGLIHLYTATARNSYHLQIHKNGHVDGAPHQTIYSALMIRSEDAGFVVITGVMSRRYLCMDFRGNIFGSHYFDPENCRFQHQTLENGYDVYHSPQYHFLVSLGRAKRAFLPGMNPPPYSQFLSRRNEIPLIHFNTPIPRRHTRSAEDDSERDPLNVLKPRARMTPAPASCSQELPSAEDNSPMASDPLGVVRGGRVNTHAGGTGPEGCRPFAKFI

B1: Recombinant human t-PA (tissue plasminogen activator) (protein)
chain: SYQVICRDEKTQMIYQQHQSWLRPVLRSNRVEYCWCNSGRAQCHSVPVKSCSEPRCFNGGTCQQALYFSDFVCQCPEGFAGKCCEIDTRATCYEDQGISYRGTWSTAESGAECTNWNSSALAQKPYSGRRPDAIRLGLGNHNYCRNPDRDSKPWCYVFKAGKYSSEFCSTPACSEGNSDCYFGNGSAYRGTHSLTESGASCLPWNSMILIGKVYTAQNPSAQALGLGKHNYCRNPDGDAKPWCHVLKNRRLTWEYCDVPSCSTCGLRQYSQPQFRIKGGLFADIASHPWQAAIFAKHRRSPGERFLCGGILISSCWILSAAHCFQERFPPHHLTVILGRTYRVVPGEEEQKFEVEKYIVHKEFDDDTYDNDIALLQLKSDSSRCAQESSVVRTVCLPPADLQLPDWTECELSGYGKHEALSPFYSERLKEAHVRLYPSSRCTSQHLLNRTVTDNMLCAGDTRSGGPQANLHDACQGDSGGPLVCLNDGRMTLVGIISWGLGCGQKDVPGVYTKVTNYLDWIRDNMRP
  in vitro proteolysis of FGF23, silver stained SDS-PAGE gel: smaller fragments are generated on a silver stained SDS-PAGE gel indicating proteolytic cleavage
